In US6060588, “Bap-1 proteins” (COR Therapeutics, Inc., dated 2000):

Target: GAL4 DNA binding protein only (pGBT9) (Saccharomyces cerevisiae (strain ATCC …, UniProt P04386))
Assay: yeast two-hybrid, mating with control baits

B1: clone 126-2 (partial cDNA of the mouse homologue of Bap-1, fused to the VP16 activation domain) (other)
chain: SGAEDNGDSSHCSNASTHSNQEAGPSNKRTKTSDDSGLDLDNNNAGVAIDPVMDGASEIELVFRPHPTLMEKDDSAQTRYIKTSGNATVDHLSKYLAVRLALEELRSKV
B1: no binding.
